Data published in patent US20260053892A1, “Induction and Expansion of Regulatory T Cells” (Board of Regents of the University of Nebraska, priority 2022, published 2026).

Tests used:
[1] = 3 or 6 μg/kg/day, cited from earlier work
[2] = in vivo; cited from earlier work
[3] = system: Tregs; experiment: Treg profiles by flow cytometry in blood, lymph nodes and spleen of treated mice; assay type: in vivo, C57BL/6 male mice
Experimental: C57BL/6 male mice (5-6 weeks old) were purchased from Jackson Laboratories (Bar Harbor, ME). […] Following a period of acclimation, mice were injected intraperitoneally (i.p.) with daily GM-CSF (Group 4) (Days 0-4). […] On Day 10, the mice were sacrificed, blood was collected, and spleen and lymph nodes were harvested.
Following treatment, whole blood, lymph nodes and spleens were collected to determine T-cell profiles via flow cytometric analysis. Peripheral blood, lymph nodes, and splenocytes were fluorescently labeled using antibodies against cell surface antigens including CD3, CD4, CD25, CD8, CD19, CD127, ICOS, GITR, CD39, CD62L, CD44, GITR, and CTLA-4, and for the intracellular markers FoxP3 and STAT5. Whole blood, lymph nodes, and splenocytes were labeled with PerCP Cyanine 5.5-anti-CD3 (eBioscience/Thermo Fisher Scientific, Waltham, MA), APC-anti-CD19 (eBiosciences), PE-anti-CD25 (eBiosciences), PE-cyanine7-anti-CD4 (eBiosciences), PerCP-eFluor710-anti-CD39 (eBiosciences), Alexa Fluor™ 488-anti-CD278 (ICOS) (Biolegend, San Diego, CA), FITC-anti-CD127 (Biolegend), FITC-anti-CD44, Alexa Fluor™ 488-anti-CTLA-4, Alexa Flour™ 700-anti-GITR, FITC-anti-CD8, and PerCP Cyanine 5.5-anti-CD62L. Intracellular staining was performed following permeabilization for 45 minutes at 4° C. Cells were labeled with APC-anti-FoxP3 (eBioscience) or anti-STAT5-Pacific Blue. Samples were analyzed with an LSRII flow cytometer and FACSDiva™ Software (BD Biosciences, San Diego, CA).
All values are expressed as mean±SEM using ANOVA (mean±SEM, n=3). *=p≤0.05; **=p≤0.01; *** p≤0.001. Data were analyzed using GraphPad Prism 9.3.1 software (La Jolla, CA).

Molecule: sargramostim: human recombinant GM-CSF (sargramostim, Leukine®)
- Treg numbers [1]: increased
- Unified Parkinson's Disease Rating Scale (UPDRS) scores [1]: modestly improved
- Safety and tolerability ([1]; low doses): safe and well-tolerated

B1: granulocyte-macrophage colony-stimulating factor (protein, UniProt P01587 18-141, looked up)
Granulocyte-macrophage …: APTRSPITVTRPWKHVEAIKEALNLLDDMPVTLNEEVEVVSNEFSFKKLTCVQTRLKIFEQGLRGNFTKLKGALNMTASYYQTYCPPTPETDCETQVTTYADFIDSLKTFLTDIPFECKKPGQK
notes: granulocyte-macrophage colony-stimulating factor, immunomodulatory growth factor; 0.1 mg/kg i.p. in mice
- half-life [2]: six
- CD4+CD25+FOXP3+ Tregs ([3]; blood, FIG. 4): did not induce
- CD25+CD127− Tregs ([3]; blood, FIG. 5): did not induce
- CD25+ICOS+ Tregs ([3]; blood, FIG. 7): did not significantly induce
- CD4+CD25+ Tregs ([3]; lymph nodes, FIG. 2): only a mild increase
- CD25+GITR+ Tregs ([3]; lymph nodes, FIG. 9): did not induce
- CD4+CD25+FOXP3+ Tregs ([3]; spleen, FIG. 3): did not induce
- CD25+CD127− Tregs ([3]; spleen, FIG. 6): did not induce
- CD25+ICOS+ Tregs ([3]; spleen, FIG. 8): did not significantly induce
- CD25+CD39+ Tregs ([3]; spleen, FIG. 10): did not induce
- CD25+CD62L− Tregs ([3]; spleen, FIG. 11): did not significantly induce
